± gives the standard deviation of the averaged measurements.

The results in this text go back to the supplement of paper PMC6757056.

Sequences and labels used below:
B1: library; a variant is named by its letters at N, in order (parent)
chain: GCUGUCACCGGUGUAUUACCCUAGUGGUCGACCGGUCUGAUGAGUCUNNNNNNAGACGAAACAGC

In data set [1] the parent is B1. Briefly: FACS-Seq fitted mean relative fluorescence mCherry/BFP without ligand (log10 relative fluorescence); ligand: hypoxanthine (xanthine aptamer); higher = higher reporter protein expression. To be noted: HEK293T, ligand present: no. Summed up: (§1)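 HEK293T libraries were made by lentiviral transduction with a ribozyme-switch mCherry reporter and an EF1α-BFP marker, enriched, and incubated with or without ligand for 48 h. Cells were sorted into 6 mCherry/BFP bins, and each bin's genomic DNA was PCR-amplified, barcoded and run on MiSeq. Fluorescence was derived by normal fitting of the bin counts. The fitted log10(mCherry/BFP) mean was scaled to five spiked-in control ribozymes.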

Data set [2] covers variants of B1. Kind of data set: normalized RNA/DNA level with ligand (relative to sTRSVctl = 100) (log10 (% of sTRSVctl)); ligand: hypoxanthine (xanthine aptamer); higher = less ribozyme self-cleavage, higher mRNA level. To be noted: ligand concentration (+) RNA-Seq: 5 mM, HEK293T, reporter: mCherry (pCS4076), ligand present: yes. The procedure: (§2)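 Hammerhead (sTRSV) ribozyme switch libraries with a ligand aptamer grafted on stem I and a randomized N4-6 loop II, cloned into the 3' UTR of mCherry and transiently transfected into HEK293T cells; RNA-Seq 72 h post transfection with ligand added 1 h before transfection; RNA read count / plasmid DNA read count normalized to the non-cleaving sTRSVctl (x100), log10; sequences with >100 DNA reads. FACS-Seq: lentiviral library sorted into 6 bins after 48 h ligand, log-normal fit mean of mCherry/BFP scaled to controls. Printed sequences are partial switch sequences.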

The variants in data set [3] derive from B1. Kind of data set: normalized RNA/DNA level without ligand (relative to sTRSVctl = 100) (log10 (% of sTRSVctl)); ligand: hypoxanthine (xanthine aptamer); higher = less ribozyme self-cleavage, higher mRNA level. To be noted: HEK293T, reporter: mCherry (pCS4076), ligand present: no. The procedure:
as §2

Variants of B1 are the subject of data set [4]. Briefly: FACS-Seq fitted mean relative fluorescence mCherry/BFP with ligand (log10 relative fluorescence); ligand: hypoxanthine (xanthine aptamer); ligand concentration (+) FACS-Seq: 5 mM; higher = higher reporter protein expression. To be noted: HEK293T, ligand present: yes. In short, it runs like this:
as §1

As for UACCGG, the “FACS-Seq fitted mean (log10)” value in data set [1] turned out to be 0.141 ± 0.038; in data set [4], 0.197 ± 0.15. In addition, in data set [2], the “normalized RNA/DNA level with ligand (log10)” value was found to be 1.91 ± 0.0042. For the same variant, in data set [3], the “normalized RNA/DNA level without ligand (log10)” value was determined as 1.63 ± 0.038.
The matching figures for AAGAAA: 0.272 ± 0.028, 0.598 ± 0.015, 1.91 ± 0.029 and 1.605 ± 0.01.
For the variant AAGAAU, the “FACS-Seq fitted mean (log10)” value in data set [1] is 0.521 ± 0.035; in data set [4] it was 0.5797 ± 0.0012. Moreover, the “normalized RNA/DNA level with ligand (log10)” value in data set [2] amounted to 1.906 ± 0.0038. The “normalized RNA/DNA level without ligand (log10)” value in data set [3] turned out to be 1.65 ± 0.018.
The matching figures for AAGAAG: -0.35 ± 0.015, 0.459 ± 0.029, 1.545 ± 0.013 and 1.04 ± 0.028.
The matching figures for AACCCA: 0.217 ± 0.063, 0.245 ± 0.0026, 1.92 ± 0.022 and 1.85 ± 0.042.
The matching figures for AACCCG: 0.577 ± 0.077, 0.751 ± 0.043, 1.84 ± 0.088 and 1.378 ± 0.013.
For CACUAA, the “FACS-Seq fitted mean (log10)” value in data set [1] was determined as 0.376 ± 0.014; in data set [4], 0.456 ± 0.0093. The “normalized RNA/DNA level with ligand (log10)” value in data set [2] came to 1.8618 ± 0.00057. Further, in data set [3], the “normalized RNA/DNA level without ligand (log10)” value is 1.74 ± 0.025.
On to GACGUU, for which the “FACS-Seq fitted mean (log10)” value was found to be 0.455 ± 0.066 in data set [1] and 0.575 ± 0.066 in data set [4]. The “normalized RNA/DNA level with ligand (log10)” value in data set [2] was 1.9 ± 0.044. Also, the “normalized RNA/DNA level without ligand (log10)” value in data set [3] is 1.853 ± 0.0023.
The matching figures for AAGCAA: 0.4932 ± 0.00094, 0.591 ± 0.03, 1.899 ± 0.0026 and 1.61 ± 0.053.
The matching figures for AAGCAG: -0.122 ± 0.013, 0.501 ± 0.039, 1.64 ± 0.044 and 1.19 ± 0.02.
Consider AACGCU, for which the “FACS-Seq fitted mean (log10)” value turned out to be 0.624 ± 0.015 in data set [1] and 0.548 ± 0.11 in data set [4]. Also, the “normalized RNA/DNA level with ligand (log10)” value in data set [2] was found to be 1.94 ± 0.032. The “normalized RNA/DNA level without ligand (log10)” value in data set [3] turned out to be 1.85 ± 0.023.
With AACGCG, the “FACS-Seq fitted mean (log10)” value in data set [1] was -0.0882 ± 0.017; in data set [4], 0.162 ± 0.024. Moreover, the “normalized RNA/DNA level with ligand (log10)” value in data set [2] worked out at 1.812 ± 0.011. In addition, the “normalized RNA/DNA level without ligand (log10)” value in data set [3] was 1.33 ± 0.08.
Regarding AACGCC, the “FACS-Seq fitted mean (log10)” value in data set [1] stood at 0.0156 ± 0.023; in data set [4], 0.1 ± 0.21. Moreover, in data set [2], the “normalized RNA/DNA level with ligand (log10)” value is 1.94 ± 0.048. Besides, the “normalized RNA/DNA level without ligand (log10)” value in data set [3] is 1.84 ± 0.037.
The matching figures for GACCCU: -0.308 ± 0.41, 0.1808 ± 0.00023, 1.99 ± 0.023 and 1.972 ± 0.0096.
The matching figures for GACCCG: 0.0296 ± 0.027, 0.292 ± 0.047, 1.89 ± 0.022 and 1.632 ± 0.016.
The matching figures for GACCCC: 0.0047 ± 0.072, 0.161 ± 0.06, 1.94 ± 0.019 and 1.87 ± 0.038.
In the case of UACCCC, the results for the “FACS-Seq fitted mean (log10)” value in data set [1] and in data set [4] were 0.5672 ± 0.0022 and 0.523 ± 0.047, respectively. Moreover, in data set [2], the “normalized RNA/DNA level with ligand (log10)” value worked out at 1.95 ± 0.062. The “normalized RNA/DNA level without ligand (log10)” value in data set [3] worked out at 1.9 ± 0.064.
The matching figures for GACGCU: 0.261 ± 0.12, 0.508 ± 0.048, 1.94 ± 0.037 and 1.893 ± 0.0077.
